Publication PMC12196904

Biological target: T1, OsARF25 B3 domain (OsARF25 123-243-GST) (Oryza sativa) (UniProt Q2QM84)
T1 sequence: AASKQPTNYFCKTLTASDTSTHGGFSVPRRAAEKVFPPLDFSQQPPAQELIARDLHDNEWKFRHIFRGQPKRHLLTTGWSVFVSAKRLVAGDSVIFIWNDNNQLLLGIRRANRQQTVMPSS
Test: EMSA
Conditions: 20 uL: 50 ng probe, 2 ug protein, 2 uL 10x buffer (100 mM Tris, 500 mM KCl, 10 mM DTT, pH 7.5) plus 1 uL each of 1 M KCl, 50% glycerol, 0.5 M EDTA

| Sequence | binding |
| --- | --- |
| GAGTTTTATATACATACAGAGCACATGCGGCATCAATGAGCAACAGGGTTTGCATGCGTTGCTGCTGCTTGAGTTCTAGTATTAGTATTTTTATTTCATCTTAATGCTTGAGCCAATAGTTCCTGAGCTGAGACATGTGCAGAAGTATCTCGTCTCGGCCTTGATTGGTGACACTGCTCGTCATGATCCAAGGGGGTGCTGCCTCAAAATATTCACGGATCGAATTCAAGCTTTTCAATTCATCA (double strand) [proOsOFP04 probe] | binds |
| TGATGAATTGAAAAGCTTGAATTCACTTCACATGCCGGCCACAATTACGGCGTTATTAGGCGGGACATGGGCATAGGAAAACCGGAAAGGTGTCCAAGGCGTTGCAGAGAATGTAGTGTGTCGGTCATAGGCTGCAAGCGAGTGCACTCCCACTTGCACCCAGGGATATATATTATCGTCATGCATGTGCCTTATGCTCTTGTCAAGCAATATTTTTTGGCAAGGCATGTGCTCTGTATGTATATAAAACTC (double strand) [proSG1 probe] | binds |
